Entries after “also recorded” stand apart in the source; their conditions may differ. Like-named read-outs stand apart in the source and are kept apart here.
What was measured:
EcDsbA = molecular target: T1, EcDsbA (Escherichia coli, UniProt P0AEG4); experiment: biochemical; format: binding, E. coli; conditions: ITC; range stated for KpDsbA and EcDsbA with […] and […] together; read-out: Kd (range over both peptides and both DsbAs)
T1 construct: lacking the periplasmic leader signal were purified as described for KpDsbA; His6-TEV leader (inferred: same procedure as KpDsbA) (N, cleaved yes); made in house; host or cells: E. coli BL21(DE3)pLys (inferred from 'as described for KpDsbA')
Experimental: (§1) Amidation and acetylation ensure that there are no charges on the peptide termini, as these are not present in the native DsbB loop sequence. Binding affinity was measured using a MicroCal™ Auto-iTC200 from (GE Healthcare, USA) at 25 °C. The sample cell was loaded with 200 μL of 100 μM KpDsbA or EcDsbA in 25 mM HEPES, 50 mM NaCl, pH 7.4, and DMSO 0.8 %. The peptide (3 mM) diluted in the same buffer was titrated with an initial injection of 0.5 μL into DsbA, followed by 19 consecutive injections (2.0 μL) offset by 180 s, while the solution was constantly stirred (1000 rpm). Data were fitted to a single-site binding model using MicroCal™ Origin 7.0 software (Origin 7 SR4 v7.0552).

KpDsbA = experiment: ITC binding of DsbB-derived peptides to KpDsbA; parameters: species or system K. pneumoniae
Experimental: as §1, with “v7.0552). Experiments were conducted in triplicate and affinity and thermodynamic parameters are reported as means and standard deviations (Table 4).” for “v7.0552).”

insulin [1] = experiment: Insulin disulfide reductase activity; format: biochemical; conditions: 10 μM enzyme, 0.33 mM DTT, 2 mM EDTA, 100 mM phosphate pH 7.0, 0.131 mM insulin; OD650nm turbidity; three repeats
Experimental: Under mild reducing conditions, DsbA proteins can reduce the intermolecular disulfide bonds formed between insulin chains A and B [3]. The rate of disulfide bond reduction can be spectroscopically followed at OD650nm by an increase in turbidity resulting from production of the insoluble insulin chain B [20]. Samples were prepared in 1 cm cuvettes containing 10 μM of protein (KpDsbA, EcDsbA or EcDsbC), 0.33 mM DTT and 2 mM EDTA in 100 mM NaH2PO4 / Na2HPO4 titrated to pH 7.0. Catalysis was initiated by the addition of 0.131 mM insulin (I0516, Sigma-Aldrich, Australia) to the sample mixture. The assay was repeated three times and data were plotted showing standard deviations.

[2] = In vitro peptide dithiol oxidation (europium fluorescence); format: biochemical; conditions: samples lacking EcDsbB, DsbA plus peptide; pH 5.5; time-resolved fluorescence
Experimental: A peptide ([…]) with a 1,4,7,10-tetraazacyclododecane-1,4,7,10-tetraacetic acid (DOTA) group amide-coupled to the N-terminus, and a methylcoumarin amide-coupled to the ε-amino group of the C-terminal lysine, was purchased from AnaSpec (Fremont, CA). Lyophilized peptide was re-suspended in 100 mM imidazole, pH 6, at a concentration of 2 mM. Europium trifluoromethanesulfonate (Sigma Aldrich, Australia) solution (100 mM) was added to the peptide at a molar ratio of 2:1 and incubated for 5 min at room temperature, to allow europium chelation. The peptide solution was then immediately aliquoted, flash frozen in liquid nitrogen and stored at -80°C. An increase in fluorescence occurs upon oxidation of the peptide cysteines to form a disulfide. Thus, fluorescence can be used to monitor the capacity of DsbA enzymes to catalyse dithiol oxidation.
Assays were conducted using a Synergy H1 multimode plate reader (BioTek, USA) with the excitation wavelength set to 340 nm and emission to 615 nm. A 150 μs delay before reading and 100 μs reading time were used for time-resolved fluorescence. The assay was performed in a white 384-well plate (Perkin Elmer OptiPlate-384, Part #: 6007290). The buffer consisted of 50 mM MES, 50 mM NaCl and 2 mM EDTA at pH 5.5. The reaction consisted of a 50 μL solution in each well, containing 160 nM EcDsbA, KpDsbA or SeDsbA, 1.6 μM EcDsbB (crude membrane extracts, containing ubiquinone) and 8 μM peptide substrate added last to initiate the reaction. Samples containing buffer and DsbA or buffer and peptide were used as controls. Data were measured for three replicates and are presented as mean values, with the standard error of the mean indicated by error bars.

[3] = EcDsbA, cited from earlier work
Description: The past 5 years has seen the characterization of DsbA enzymes from many other bacteria including DsbAs with varying degrees of sequence identity to EcDsbA such as Neisseria meningitidis DsbA1 (NmDsbA1, 23% identity), Pseudomonas aerugin ... || EcDsbA and SeDsbA share 86 % sequence identity and both have been characterized previously. […] Both are similarly oxidizing enzymes: the redox potentials of EcDsbA and SeDsbA are -122 and -126 mV, respectively, whereas the range for all DsbAs is -80 to -163 mV (Table 1 ). In b ... || (+ 1 further places)

insulin [4] = conditions: cited from earlier work
[5] = system: E. coli dsbA- null (JCB817); experiment: Complementation swarming assay, dsbA- null strain JCB817; conditions: pBAD33, arabinose-induced; soft M63 minimal agar, 37 °C, 3-7 h; biological triplicates
Experimental: The ability of KpDsbA to rescue non-motile E. coli dsbA ^- null (JCB817) and dsbA ^-/dsbB ^- double-null (JCB818) strains was assessed in a cell-swarming assay as described previously [16]. The mature KpDsbA coding sequence was cloned into pBAD33 under an arabinose inducible promotor with the EcDsbA periplasmic signal sequence. A wild-type EcDsbA cloned into pBAD33 vector was used as a positive control. Non-motile E. coli dsbA ^- deficient (JCB817) or dsbA ^- / dsbB ^- double-mutant (JCB818) [3] cells (2x10^6) transformed with a KpDsbA or EcDsbA pBAD33 inducible vector were spotted onto the center of a soft M63 minimal agar plate containing 40 mg/mL of each amino acid (except L-cysteine). Plates were incubated at 37 °C and motility of cells monitored using a Molecular Imager® Gel Doc™ system from BIO-RAD (CA 94547, USA) after 3-7 h. Complementation experiments were repeated as biological triplicates.

Q: With CC(=O)N1CCC[C@H]1C(=O)N[C@@H](CO)C(=O)N1CCC[C@H]1C(=O)N[C@@H](Cc1ccccc1)C(=O)N[C@@H](CCC(N)=O)C(=O)N[C@H](C(=O)N[C@@H](CS)C(=O)N[C@@H](CC(=O)O)C(N)=O)[C@@H](C)O as the molecule, how does the Kd (EcDsbA) read?
A: Its Kd is 11 to 18 µM.

Q: And the Kd (KpDsbA; ITC (Auto-iTC200), cell 100 μM KpDsbA, peptide 3 mM, 25 mM HEPES, 50 mM NaCl, pH 7.4, DMSO 0.8 %, 25 °C in method, 20 °C in table footnote, single-site model, apparent Kd, mean ± SD, three independent experiments, read-out: Kd)?
A: Its Kd is 16.7 ± 0.6 µM.

Q: What about the Kd (KpDsbA; ITC, range stated for KpDsbA and EcDsbA with PSPFATCD and PSPFQTCD together, read-out: Kd (range over both peptides and both DsbAs)) of the same molecule?
A: The Kd was 11 to 18 µM.

B1: EcDsbA: Escherichia coli DsbA (CAA56736) (protein)
chain: AQYEDGKQYTTLEKPVAGAPQVLEFFSFFCPHCYQFEEVLHISDNVKKKLPEGVKMTKYHVNFMGGDLGKDLTQAWAVAMALGVEDKVTVPLFEGVQKTQTIRSASDIRDVFINAGIKGEEYDAAWNSFVVKSLVAQQEKAAADVQLRGVPAMFVNGKYQLNPQGMDTSNMDVFVQQYADTVKYLSEKK
Q: Which “insulin disulfide reductase activity” value (insulin [1]) does the source give for B1 here?
A: The value was “weak insulin reductase activity”.

Q: What about the “dithiol oxidation signal without EcDsbB” value [2] of the same molecule?
A: Its value is “no increase in signal”.

Q: What about the “E°’ (redox potential)” value ([3]; Table 1, ref [6], [14]) of the same molecule?
A: The value was -122 mV.

Q: What about the Tm oxidized ([3]; Table 1, ref [6], [14]) of the same molecule?
A: The Tm oxidized was 341 K.

Q: What about the Tm reduced ([3]; Table 1, ref [6], [14]) of the same molecule?
A: The Tm reduced was 350 K.

Q: What about the “pKa “Cys30”” value ([3]; Table 1 and comparison, ref [6], [14]) of the same molecule?
A: Its value is 3.3.

Q: What about the “pKa of nucleophilic cysteine” value ([3]; introduction, ref [9]) of the same molecule?
A: Its value is 3.3.

Q: And the Tm oxidized ([3]; with spread, ref [7])?
A: Its Tm oxidized is 341.7 ± 0.2 K.

Q: And the Tm reduced ([3]; with spread, ref [7])?
A: Its Tm reduced is 350.9 ± 0.2 K.

Q: What about the “pKa of nucleophilic cysteine” value ([3]; ref [7]) of the same molecule?
A: Its value is 3.3.

Q: What about the redox potential ([3]; ref [9]) of the same molecule?
A: Its redox potential is -122 mV.

Q: What about the Tm oxidized ([3]; ref [13]) of the same molecule?
A: The Tm oxidized was 341 K.

Q: And the Tm reduced ([3]; ref [13])?
A: Its Tm reduced is 350 K.

Q: And the insulin reductase activity (insulin [4])?
A: Its insulin reductase activity is “weak disulfide reductants; also recorded: weak insulin reductase activity”.

Q: What about the “restoration of motility (swarming)” value [5] of the same molecule?
A: Its value is “can rescue the swarming”.
